# In publication PMC4965175:
# Biological target: D-allulose 3-epimerase from Flavonifractor plautii (Flavonifractor plautii ATCC 29863)
# Experiment: SEC; gel filtration on Sephacryl S-300 HR 16/60; purified enzyme eluted with 50 mM Tris-HCl pH 7.5, 150 mM NaCl, 1 mL/min; calibrated with ferritin, catalase, aldolase and conalbumin
substance,measurement,value
D-allulose 3-epimerase from Flavonifractor plautii (enzyme),stoichiometry N,4
